Measured values taken from the supplement of paper PMC10567573.

B1: LPCAT4 (parent)
chain: HDPLYGKLFSTYLRPPHTSRGTSQ

Variants of: B1
Test: protein stability index of a GFP-peptide fusion (GPS, HEK-293T) (PSI 1-6); higher = more stable
Conditions: c terminus: a fixed tail appended
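Also: lentivirally expressed fusions sorted by FACS into six bins by GFP to DsRed ratio, PSI derived from sequencing read proportions per bin multiplied by bin number.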

In order of rising protein stability index:
1. HDPLYGKLFSTYLRPFHTSRGTSQ [P16F]  1.77
2. HDPLYGKLFSTYLRTPHTSRGTSQ [P15T]  1.88
3. HDPLYGKLFSTYLRFPHTSRGTSQ [P15F]  2.08
4. HDPLYGKLFSTYLRCPHTSRGTSQ [P15C]  2.11
5. HDPLYGKLFSTYLREPHTSRGTSQ [P15E]  2.13
6. HDPLYGKLFSTYLRPAHTSRGTSQ [P16A]  2.2
7. HDPLYGKLFSTYLRPYHTSRGTSQ [P16Y]  2.22
8. HDPLYGKLFSVYLRPPHTSRGTSQ [T11V]  2.24
9. HDPLYGKLFSTYLRPCHTSRGTSQ [P16C]  2.26
10. HDPLYGKLFSTYLRLPHTSRGTSQ [P15L]  2.27
11. HDPLYGKLFSTYLRIPHTSRGTSQ [P15I]  2.32
12. HDPLYGKLFSTYLRNPHTSRGTSQ [P15N]  2.36
13. HDPLYGKLFSTYLRWPHTSRGTSQ [P15W]  2.37
14. HDPLYGKLFSLYLRPPHTSRGTSQ [T11L]  2.39
15. HDPLYGKLFSTYLRPIHTSRGTSQ [P16I]  2.41
16. HDPLYGKLFSTYLRPWHTSRGTSQ [P16W]  2.42
17. HDPLYGKLFSTYLRVPHTSRGTSQ [P15V]  2.42
18. HDPLYGKLWSTYLRPPHTSRGTSQ [F9W]  2.43
19. HDPLYGKLFSTYLRPVHTSRGTSQ [P16V]  2.46
20. HDPLYGKLFSIYLRPPHTSRGTSQ [T11I]  2.46
21. HDPLYGKLFSTYLRHPHTSRGTSQ [P15H]  2.47
22. HDPLYGKLFSTYLRQPHTSRGTSQ [P15Q]  2.47
23. HDPLYGKLFSCYLRPPHTSRGTSQ [T11C]  2.48
24. HDPLYGKLFSPYLRPPHTSRGTSQ [T11P]  2.48
25. HDPLYGKLFSTYLRSPHTSRGTSQ [P15S]  2.48
26. HDPLYGKLFSGYLRPPHTSRGTSQ [T11G]  2.49
27. HDPLYGKLFSTYLRMPHTSRGTSQ [P15M]  2.51
28. HDPLYGKLFSTYLRPHHTSRGTSQ [P16H]  2.52
29. HDPLYGKLFSTYLRYPHTSRGTSQ [P15Y]  2.52
30. HDPLYGKLFSTYLRKPHTSRGTSQ [P15K]  2.6
31. HDPLYGKLFSSYLRPPHTSRGTSQ [T11S]  2.63
32. HDPLYGKLFSTYLRPSHTSRGTSQ [P16S]  2.67
33. HDPLYGKLFSTYLRPLHTSRGTSQ [P16L]  2.68
34. HDPLYGKLFSTYLRAPHTSRGTSQ [P15A]  2.7
35. HDPLYGKLFSTYLRPPCTSRGTSQ [H17C]  2.7
36. HDPLYGKLFSFYLRPPHTSRGTSQ [T11F]  2.75
37. HDPLYGKLFSTYLRPTHTSRGTSQ [P16T]  2.76
38. HDPLYGKLFSTYLRPRHTSRGTSQ [P16R]  2.77
39. HDPLYGKLFSWYLRPPHTSRGTSQ [T11W]  2.77
40. HDPLYGKLFSTYCRPPHTSRGTSQ [L13C]  2.77
41. HDPLYGKLFSTYWRPPHTSRGTSQ [L13W]  2.77
42. HDPLYGKLFSTYYRPPHTSRGTSQ [L13Y]  2.78
43. HDPLYGKLFSTYLRPPATSRGTSQ [H17A]  2.79
44. HDPLYGKLFSYYLRPPHTSRGTSQ [T11Y]  2.82
45. HDPLYGKLFSTYLRPPDTSRGTSQ [H17D]  2.82
46. HDPLYGKLFSTYLRRPHTSRGTSQ [P15R]  2.85
47. HDPLYGKLFSMYLRPPHTSRGTSQ [T11M]  2.92
48. HDPLYGKLFSTYLRPNHTSRGTSQ [P16N]  2.94
49. HDPLYGKLFSRYLRPPHTSRGTSQ [T11R]  2.94
50. HDPLYGKLFSTYLRPGHTSRGTSQ [P16G]  3.01
51. HDPLYGKLFSTYLRPKHTSRGTSQ [P16K]  3.01
52. HDPLYGKLFSNYLRPPHTSRGTSQ [T11N]  3.02
53. HDPLYGKLFSHYLRPPHTSRGTSQ [T11H]  3.05
54. HDPLYGKLFSTYIRPPHTSRGTSQ [L13I]  3.06
55. HDPLYGKLFSEYLRPPHTSRGTSQ [T11E]  3.07
56. HDPLYGKLFSTYMRPPHTSRGTSQ [L13M]  3.1
57. HDPLYGKLFSTYLRPMHTSRGTSQ [P16M]  3.13
58. HDPLYGKLFSTYLRDPHTSRGTSQ [P15D]  3.16
59. HDPLYGKLFSTYLRPEHTSRGTSQ [P16E]  3.19
60. HDPLYGKLFSTYLRGPHTSRGTSQ [P15G]  3.2
61. HDPLYGKLFSTYFRPPHTSRGTSQ [L13F]  3.21
62. HDPLYGKLFSTYPRPPHTSRGTSQ [L13P]  3.21
63. HDPLYGKLFSTYLRPPETSRGTSQ [H17E]  3.22
64. HDPLYGKLFSTYLRPQHTSRGTSQ [P16Q]  3.27
65. HDPLYGKLFSTYLRPDHTSRGTSQ [P16D]  3.37
66. HDPLYGKLFSTYRRPPHTSRGTSQ [L13R]  3.39
67. HDPLYGKLFSQYLRPPHTSRGTSQ [T11Q]  3.43
68. HDPLYGKLFSTYKRPPHTSRGTSQ [L13K]  3.44
69. HDPLYGKLFSKYLRPPHTSRGTSQ [T11K]  3.45
70. HDPLYGKLFSDYLRPPHTSRGTSQ [T11D]  3.46
71. HDPLYGKLLSTYLRPPHTSRGTSQ [F9L]  3.54
72. HDPLYGKLFSTYGRPPHTSRGTSQ [L13G]  3.62
73. HDPLYGKLPSTYLRPPHTSRGTSQ [F9P]  3.65
74. HDPLYGKLCSTYLRPPHTSRGTSQ [F9C]  3.71
75. HDPLYGKLFSTYTRPPHTSRGTSQ [L13T]  3.72
76. HDPLYGKLFSTYVRPPHTSRGTSQ [L13V]  3.72
77. HDPLYGKLFSTYARPPHTSRGTSQ [L13A]  3.73
78. HDPLYGKLYSTYLRPPHTSRGTSQ [F9Y]  3.8
79. HDPLYGKLFSTYHRPPHTSRGTSQ [L13H]  3.88
80. HDPLYGKLFSTYERPPHTSRGTSQ [L13E]  3.99
81. HDPLYGKLFSTYSRPPHTSRGTSQ [L13S]  4.04
82. HDPLYGKLKSTYLRPPHTSRGTSQ [F9K]  4.05
83. HDPLYGKLFSAYLRPPHTSRGTSQ [T11A]  4.05
84. HDPLYGKLFSTYQRPPHTSRGTSQ [L13Q]  4.06
85. HDPLYGKLGSTYLRPPHTSRGTSQ [F9G]  4.09
86. HDPLYGKLFSTYDRPPHTSRGTSQ [L13D]  4.11
87. HDPLYGKLTSTYLRPPHTSRGTSQ [F9T]  4.12
88. HDPLYGKLFSTYNRPPHTSRGTSQ [L13N]  4.16
89. HDPLYGKLVSTYLRPPHTSRGTSQ [F9V]  4.24
90. HDPLYGKLHSTYLRPPHTSRGTSQ [F9H]  4.33
91. HDPLYGKLQSTYLRPPHTSRGTSQ [F9Q]  4.37
92. HDPLYGKLDSTYLRPPHTSRGTSQ [F9D]  4.41
93. HDPLYGKLSSTYLRPPHTSRGTSQ [F9S]  4.74
94. HDPLYGKLNSTYLRPPHTSRGTSQ [F9N]  4.76
